Laboratory results: patent US6979530

Biological target: T1, Peptide conjugate 9 (DYE^2-Gly-Asp-Glu-Val-Asp-Gly-Ile-Lys-DYE^1)
T1 chain: GDEVDGIK

B1: purified caspase-3 (BD PharMingen) (protein)
chain: SGISLDNSYKMDYPEMGLCIIINNKNFHKSTGMTSRSGTDVDAANLRETFRNLKYEVRNKNDLTREEIVELMRDVSKEDHSKRSSFVCVLLSHGEEGIIFGTNGPVDLKKITNFFRGDRCRSLTGKPKLFIIQACRGTELDCGIETDSGVDDDMACHKIPVEADFLYAYSTAPGYYSWRNSKDGSWFIQSLCAMLKQYADKLEFMHILTRVNRKVATEFESFSFDATFHAKKQIPCIVSMLTKELYFYH
- fluorescence excitation and emission spectra before and after adding purified caspase-3 (in vitro cleavage): When purified caspase-3 is added to 9, significant excitation fluorescence (FIG. 6) and significant emission fluorescence is detected (FIG. 7) from the donor dibenzorhodamine dye
- time course of donor dye fluorescence emission after mixing with caspase-3 (in vitro cleavage): Emission from the donor dye increased rapidly during the first 5 to 10 minutes and stabilized in about an hour, indicating rapid cleavage.
